These results are taken from patent publication US7727950.

Series [1] deals with T1, generic peptide substrate RARTLSFAEPG
T1 sequence: RARTLSFAEPG

Series [2] deals with T2, standard peptide substrate MHRQETVDCLK
T2 sequence: MHRQETVDCLK

As a reminder, the Km is the substrate concentration at which the rate is half of its maximum. Turning to “alpha-isoform of calmodulin-dependent protein kinase II (CaMKII)”, the Michaelis-Menten constant (Km) was determined as 300 µM in series [1] and 60 µM in series [2].
